The text below walks through data of patent US20110118131A1 (published 2011).

The target of this test is T1, IL-1beta (UniProt P01584 117-269).
T1 construct: also called IL-1β
Briefly: Biacore. In general terms: In SPR one partner is held on a chip, and binding of the other changes the refractive index at the surface.

B1: XPA23 Fab, heavy chain R59S (Fab, V domains shown)
VH: EVQLLESGGGLVQPGGSLRLSCAASGFTFSKYFMFWVRQAPGKGLEWVSVISPSGGMTSYADSVKGRFTISRDNSKNTLYLQMNSLRAEDTAVYYCARVGYGGNSDYWGQGTLVTVSS
VL: DIQMTQSPSSVSASVGDRLTIICRASQDINRWLAWYQQTPGNAPKLLIHSATSLQSGVPSRFSGSGSGTDFTLTINSLQPEDFATYYCQQADSFPLTFGGGTKVEIK
Take B1: the “fold difference in affinity vs parental” value is 0.13 fold.

B2: XPA23 Fab, heavy chain R59W (Fab, V domains shown)
VH: EVQLLESGGGLVQPGGSLRLSCAASGFTFSKYFMFWVRQAPGKGLEWVSVISPSGGMTWYADSVKGRFTISRDNSKNTLYLQMNSLRAEDTAVYYCARVGYGGNSDYWGQGTLVTVSS
VL: DIQMTQSPSSVSASVGDRLTIICRASQDINRWLAWYQQTPGNAPKLLIHSATSLQSGVPSRFSGSGSGTDFTLTINSLQPEDFATYYCQQADSFPLTFGGGTKVEIK
For the molecule B2, the “fold difference in affinity vs parental” value came out at 0.09 fold.

B3: XPA23 Fab, heavy chain S30K (Fab, V domains shown)
VH: EVQLLESGGGLVQPGGSLRLSCAASGFTFKKYFMFWVRQAPGKGLEWVSVISPSGGMTRYADSVKGRFTISRDNSKNTLYLQMNSLRAEDTAVYYCARVGYGGNSDYWGQGTLVTVSS
VL: DIQMTQSPSSVSASVGDRLTIICRASQDINRWLAWYQQTPGNAPKLLIHSATSLQSGVPSRFSGSGSGTDFTLTINSLQPEDFATYYCQQADSFPLTFGGGTKVEIK
Take B3: the binding result is reported as “no binding”.

B4: XPA23 Fab, heavy chain S30N (Fab, V domains shown)
VH: EVQLLESGGGLVQPGGSLRLSCAASGFTFNKYFMFWVRQAPGKGLEWVSVISPSGGMTRYADSVKGRFTISRDNSKNTLYLQMNSLRAEDTAVYYCARVGYGGNSDYWGQGTLVTVSS
VL: DIQMTQSPSSVSASVGDRLTIICRASQDINRWLAWYQQTPGNAPKLLIHSATSLQSGVPSRFSGSGSGTDFTLTINSLQPEDFATYYCQQADSFPLTFGGGTKVEIK
With B4, the “fold difference in affinity vs parental” value was 0.15 fold.

B5: XPA23 Fab, heavy chain S30W (Fab, V domains shown)
VH: EVQLLESGGGLVQPGGSLRLSCAASGFTFWKYFMFWVRQAPGKGLEWVSVISPSGGMTRYADSVKGRFTISRDNSKNTLYLQMNSLRAEDTAVYYCARVGYGGNSDYWGQGTLVTVSS
VL: DIQMTQSPSSVSASVGDRLTIICRASQDINRWLAWYQQTPGNAPKLLIHSATSLQSGVPSRFSGSGSGTDFTLTINSLQPEDFATYYCQQADSFPLTFGGGTKVEIK
As for B5, the “fold difference in affinity vs parental” value turned out to be 0.77 fold.

B6: XPA23 Fab, heavy chain S52E (Fab, V domains shown)
VH: EVQLLESGGGLVQPGGSLRLSCAASGFTFSKYFMFWVRQAPGKGLEWVSVIEPSGGMTRYADSVKGRFTISRDNSKNTLYLQMNSLRAEDTAVYYCARVGYGGNSDYWGQGTLVTVSS
VL: DIQMTQSPSSVSASVGDRLTIICRASQDINRWLAWYQQTPGNAPKLLIHSATSLQSGVPSRFSGSGSGTDFTLTINSLQPEDFATYYCQQADSFPLTFGGGTKVEIK
For B6, the binding result is reported as “no binding”.

B7: XPA23 Fab, heavy chain S52D (Fab, V domains shown)
VH: EVQLLESGGGLVQPGGSLRLSCAASGFTFSKYFMFWVRQAPGKGLEWVSVIDPSGGMTRYADSVKGRFTISRDNSKNTLYLQMNSLRAEDTAVYYCARVGYGGNSDYWGQGTLVTVSS
VL: DIQMTQSPSSVSASVGDRLTIICRASQDINRWLAWYQQTPGNAPKLLIHSATSLQSGVPSRFSGSGSGTDFTLTINSLQPEDFATYYCQQADSFPLTFGGGTKVEIK
On to B7, for which the binding result is “no binding”.

B8: XPA23 Fab, heavy chain S30D (Fab, V domains shown)
VH: EVQLLESGGGLVQPGGSLRLSCAASGFTFDKYFMFWVRQAPGKGLEWVSVISPSGGMTRYADSVKGRFTISRDNSKNTLYLQMNSLRAEDTAVYYCARVGYGGNSDYWGQGTLVTVSS
VL: DIQMTQSPSSVSASVGDRLTIICRASQDINRWLAWYQQTPGNAPKLLIHSATSLQSGVPSRFSGSGSGTDFTLTINSLQPEDFATYYCQQADSFPLTFGGGTKVEIK
On to B8, for which the binding result is “no binding”.

B9: XPA23 Fab, heavy chain S30R (Fab, V domains shown)
VH: EVQLLESGGGLVQPGGSLRLSCAASGFTFRKYFMFWVRQAPGKGLEWVSVISPSGGMTRYADSVKGRFTISRDNSKNTLYLQMNSLRAEDTAVYYCARVGYGGNSDYWGQGTLVTVSS
VL: DIQMTQSPSSVSASVGDRLTIICRASQDINRWLAWYQQTPGNAPKLLIHSATSLQSGVPSRFSGSGSGTDFTLTINSLQPEDFATYYCQQADSFPLTFGGGTKVEIK
For B9, the “fold difference in affinity vs parental” value stood at 0.1 fold.

B10: XPA23 Fab, heavy chain R59Y (Fab, V domains shown)
VH: EVQLLESGGGLVQPGGSLRLSCAASGFTFSKYFMFWVRQAPGKGLEWVSVISPSGGMTYYADSVKGRFTISRDNSKNTLYLQMNSLRAEDTAVYYCARVGYGGNSDYWGQGTLVTVSS
VL: DIQMTQSPSSVSASVGDRLTIICRASQDINRWLAWYQQTPGNAPKLLIHSATSLQSGVPSRFSGSGSGTDFTLTINSLQPEDFATYYCQQADSFPLTFGGGTKVEIK
In the case of B10, the binding result is listed as “no binding”.

B11: XPA23 Fab, heavy chain S30F (Fab, V domains shown)
VH: EVQLLESGGGLVQPGGSLRLSCAASGFTFFKYFMFWVRQAPGKGLEWVSVISPSGGMTRYADSVKGRFTISRDNSKNTLYLQMNSLRAEDTAVYYCARVGYGGNSDYWGQGTLVTVSS
VL: DIQMTQSPSSVSASVGDRLTIICRASQDINRWLAWYQQTPGNAPKLLIHSATSLQSGVPSRFSGSGSGTDFTLTINSLQPEDFATYYCQQADSFPLTFGGGTKVEIK
In the case of B11, the binding result was “no binding”.

B12: XPA23 Fab, heavy chain S30Q (Fab, V domains shown)
VH: EVQLLESGGGLVQPGGSLRLSCAASGFTFQKYFMFWVRQAPGKGLEWVSVISPSGGMTRYADSVKGRFTISRDNSKNTLYLQMNSLRAEDTAVYYCARVGYGGNSDYWGQGTLVTVSS
VL: DIQMTQSPSSVSASVGDRLTIICRASQDINRWLAWYQQTPGNAPKLLIHSATSLQSGVPSRFSGSGSGTDFTLTINSLQPEDFATYYCQQADSFPLTFGGGTKVEIK
For B12, the binding result is listed as “no binding”.

B13: XPA23 Fab, heavy chain S30H (Fab, V domains shown)
VH: EVQLLESGGGLVQPGGSLRLSCAASGFTFHKYFMFWVRQAPGKGLEWVSVISPSGGMTRYADSVKGRFTISRDNSKNTLYLQMNSLRAEDTAVYYCARVGYGGNSDYWGQGTLVTVSS
VL: DIQMTQSPSSVSASVGDRLTIICRASQDINRWLAWYQQTPGNAPKLLIHSATSLQSGVPSRFSGSGSGTDFTLTINSLQPEDFATYYCQQADSFPLTFGGGTKVEIK
Consider B13, for which the binding result is on record as “no binding”.

B14: XPA23 Fab, heavy chain S30E (Fab, V domains shown)
VH: EVQLLESGGGLVQPGGSLRLSCAASGFTFEKYFMFWVRQAPGKGLEWVSVISPSGGMTRYADSVKGRFTISRDNSKNTLYLQMNSLRAEDTAVYYCARVGYGGNSDYWGQGTLVTVSS
VL: DIQMTQSPSSVSASVGDRLTIICRASQDINRWLAWYQQTPGNAPKLLIHSATSLQSGVPSRFSGSGSGTDFTLTINSLQPEDFATYYCQQADSFPLTFGGGTKVEIK
Take B14: the binding result is reported as “no binding”.

B15: XPA23 Fab, heavy chain S30Y (Fab, V domains shown)
VH: EVQLLESGGGLVQPGGSLRLSCAASGFTFYKYFMFWVRQAPGKGLEWVSVISPSGGMTRYADSVKGRFTISRDNSKNTLYLQMNSLRAEDTAVYYCARVGYGGNSDYWGQGTLVTVSS
VL: DIQMTQSPSSVSASVGDRLTIICRASQDINRWLAWYQQTPGNAPKLLIHSATSLQSGVPSRFSGSGSGTDFTLTINSLQPEDFATYYCQQADSFPLTFGGGTKVEIK
As to B15, the binding result is reported as “no binding”.
